# Experimental data published in publication PMC9223585, “Structural and Functional Insights into CP2c Transcription Factor Complexes” (International Journal of Molecular Sciences, 2022).
# Molecular target: the molecule itself
# Test: cross-linking + co-IP; DSP XL-WB: nuclear extracts of MDA-MB-231 cells, Benzonase, 2 mM DSP 30 min at room temperature, IP with CP2c, CP2b or PIAS1 antibodies, sequential Western blot with and without DTT
protein,measurement,value
"CP2c (TFCP2), endogenous human (natural protein, human (endogenous in MDA-MB-231), UniProt Q12800-1 1-502, looked up, transcription factor CP2c (TFCP2, LBP-1c), endogenous in the human breast cancer line MDA-MB-231; both are human cells; also called α-CP2; LSF; source: endogenous, MDA-MB-231 nuclear and cytosolic lysate) MAWALKLPLADEVIESGLVQDFDASLSGIGQELGAGAYSMSDVLALPIFKQEESSLPPDNENKILPFQYVLCAATSPAVKLHDETLTYLNQGQSYEIRMLDNRKLGELPEINGKLVKSIFRVVFHDRRLQYTEHQQLEGWRWNRPGDRILDIDIPMSVGIIDPRANPTQLNTVEFLWDPAKRTSVFIQVHCISTEFTMRKHGGEKGVPFRVQIDTFKENENGEYTEHLHSASCQIKVFKPKGADRKQKTDREKMEKRTPHEKEKYQPSYETTILTECSPWPEITYVNNSPSPGFNSSHSSFSLGEGNGSPNHQPEPPPPVTDNLLPTTTPQEAQQWLHRNRFSTFTRLFTNFSGADLLKLTRDDVIQICGPADGIRLFNALKGRMVRPRLTIYVCQESLQLREQQQQQQQQQQKHEDGDSNGTFFVYHAIYLEELTAVELTEKIAQLFSISPCQISQIYKQGPTGIHVLISDEMIQNFQEEACFILDTMKAETNDSYHIILK",stoichiometry N,4
